Experimental data from patent US20240043507A1 (RQ BIOTECHNOLOGY, published 2024).

Assays:
[1] = target: T1, SARS-CoV-2 spike protein on authentic virus, strain SARS-CoV-2/human/AUS/VIC01/2020 (Victoria) (SARS-CoV-2, UniProt P0DTC2 14-1273); experiment: whole-virus capture ELISA, half-maximal binding
T1 construct: whole, on cells

[2] = target: T1, SARS-CoV-2 spike protein on authentic …; experiment: calculated from whole-virus ELISA binding and FRNT50
[3] = target: T2, SARS-CoV-2 receptor binding domain with N501Y (SARS-CoV-2, UniProt P0DTC2 330-532); experiment: BLI, RBD immobilised on AR2G biosensor, 1:1 fit
T2 construct: range 330-532; also called RBD-N501Y; RBD N501Y

[4] = target: T1, SARS-CoV-2 spike protein on authentic …; experiment: cell-based or functional assay
[5] = target: SARS-CoV-2 spike on whole virus (SARS-CoV-2/human/AUS/VIC01/2020, Victoria) (SARS-CoV-2, UniProt P0DTC2 14-1273); experiment: cell-based or functional assay
[6] = target: SARS-CoV-2 spike protein on authentic virus, strain B.1.1.7 (SARS-CoV-2, UniProt P0DTC2 14-1273); experiment: cell-based or functional assay

B1: Fab of antibody 316 (Fab, V domains shown)
VH: not shown
VL: QAVLTQPPSASGSPGQSVTISCTGTSSDVGGYNYVSWYQQHPGKAPKLMIYEVSKRPSGVPDRFSGSKSGNTASLTVSGLQAEDEADYYCSSYAGSNHWVFGGGTKLTVL
notes: also called 316 Fab; Fab 316
In the case of B1, the Kd [1] is reported as 8.76 nM, the “% Occupancy” value [2] is reported as 74% and the Kd [3] is reported as 2.81 nM. For the same binder, the “Neutralisation IC50” value [4] was 27.6 nM.

B2: Fab of antibody 398 (Fab, V domains shown)
VH: QVQLVESGGGLVQPGGSLRLSCAASGFTVSSNYMTWVRQAPGKGLEWVSVIYSGGSTYYADSVKGRFTISRDNSKNTLYLQMNSLRADDTAVYYCARDSTADYDFWSGYYVGAFHIWGQGTMVTVSS
VL: QTVLTQPASVSGSPGQSITISCTGTSSDVGGYNYVSWYQQHPGKAPKLMIYEVTKRPSGVPDRFSGSKSGNTASLTVSGLQAEDEADYYCSSYAGSNNWVFGGGTKLTVL
Work on B2 yielded a Kd [3] of 1.18 nM.

B3: mAb 175 (antibody, V domains shown)
VH: EVQLVESGGGLIQPGGSLRLSCAASGLTVSRNYMSWVRQAPGKGLEWVSLIYSGGSTYYADSVKGRFTISRDNSKNTLYLQMNSLRAEDTAVYYCARDLRGEVWGQGTMVTVSS
VL: not shown
For B3, the “Neutralisation IC50 (FRNT)” value [5] was 0.033 µg/mL.

B4: Fab of antibody 175 (Fab, V domains shown)
VH: EVQLVESGGGLIQPGGSLRLSCAASGLTVSRNYMSWVRQAPGKGLEWVSLIYSGGSTYYADSVKGRFTISRDNSKNTLYLQMNSLRAEDTAVYYCARDLRGEVWGQGTMVTVSS
VL: not shown
Work on B4 yielded a Kd [3] of 2.54 nM.

B5: mAb 222 (antibody, V domains shown)
VH: EVQLVESGGGLIQPGGSLRLSCAASGLTVSSNYMSWVRQAPGKGLEWVSVIYSGGSTFYADSVKGRFTISRDNSKNTLYLQMNSLGAEDTAVYYCARGEGSPGNWFDPWGQGTLVTVSS
VL: DVVMTQSPGTLSLSPGERATLSCRASQSVPSSYLAWYQQKPGQAPRLLIYGASTRATGIPDRFSGSGSGTDFTLTISRLEPEDFAVYYCQHYDTSPRFGGGTKVDIK
With B5 the “Neutralisation IC50 (FRNT)” value [5] was 0.016 µg/mL.

B6: Fab of antibody 222 (Fab, V domains shown)
VH: EVQLVESGGGLIQPGGSLRLSCAASGLTVSSNYMSWVRQAPGKGLEWVSVIYSGGSTFYADSVKGRFTISRDNSKNTLYLQMNSLGAEDTAVYYCARGEGSPGNWFDPWGQGTLVTVSS
VL: DVVMTQSPGTLSLSPGERATLSCRASQSVPSSYLAWYQQKPGQAPRLLIYGASTRATGIPDRFSGSGSGTDFTLTISRLEPEDFAVYYCQHYDTSPRFGGGTKVDIK
For B6, the Kd [3] was 0.39 nM.

B7: mAb 269 (antibody, V domains shown)
VH: QVQLVESGGGLIQPGGSLRLSCAASGLTVNRNYMSWIRQAPGKGLEWVSVIYSGGSTFYADSVKGRFTISRDNSKNTLSLQMNSLRAEDTAIYYCARDFYEGSFDIWGQGTMVTVSS
VL: AIQLTQSPSFLSASIGDRVTITCRASQGISSYLAWYQQKPGKAPKLLIYAASTLQSGVPSRFSGSGSGTEFTLTISSLQPEDFASYYCQQLNSYPAPVFGPGTKVDIK
In the case of B7, the “Neutralisation IC50 (FRNT)” value [5] is reported as 0.036 µg/mL.

B8: Fab of antibody 269 (Fab, V domains shown)
VH: QVQLVESGGGLIQPGGSLRLSCAASGLTVNRNYMSWIRQAPGKGLEWVSVIYSGGSTFYADSVKGRFTISRDNSKNTLSLQMNSLRAEDTAIYYCARDFYEGSFDIWGQGTMVTVSS
VL: AIQLTQSPSFLSASIGDRVTITCRASQGISSYLAWYQQKPGKAPKLLIYAASTLQSGVPSRFSGSGSGTEFTLTISSLQPEDFASYYCQQLNSYPAPVFGPGTKVDIK
notes: also called 269 Fab; COVOX-269
B8 gave a Kd [3] of 45.4 nM.

B9: Fab of antibody 281 (Fab, V domains shown)
VH: QVQLVESGGGLVQPGGSLRLSCAASGFPFSIYWMSWVRQAPGKGLEWVANIKQDGSEKYYVDSVKGRFTISRDNAKNSLYLHMNSLRGEDTAVYYCASRYYDFRPEAWFDYWGQGTLVTVSS
VL: not shown
Work on B9 yielded a Kd [3] of 4.05 nM.

B10: Fab of antibody 88 (Fab, V domains shown)
VH: QLQLQESGPGLVKPSQTLSLTCTVSGGSISSGSYNWTWIRQPAGKGLEWIGRIYNSGSTNYNPSLKSRVTISVDTSKNQLSLKVRSVTAADTAVYYCARHCSGGTCYPKYYYGMDVWGQGTTVTVSS
VL: QSALTQPPSVSEAPRQRVTISCSGSSSNIGNNAVNWYQQFPGKAPKLLIYYDDLLPSGVSDRFSGSKSGTSASLAISGVQSEDEADYYCAAWDDSLNVVVFGGGTKLTVL
notes: also called 88 Fab; Fab 88
For B10, the Kd [1] was 1.21 nM, the “% Occupancy” value [2] was 85.2% and the Kd [3] was 0.65 nM. For the same binder, the “Neutralisation IC50” value [4] was 6.95 nM.

B11: mAb 45 (antibody, V domains shown)
VH: QVQLVESGGGVVQPGRSLRLSCAASGFTFSTYAMHWVRQAPGKGLEWVAVLSYDGSNKYYADSVKGRFTISRDNSKNTLYLQMNSLRAEDTAVYYCAKGGSYAYYYYMDVWGKGTTVTVSS
VL: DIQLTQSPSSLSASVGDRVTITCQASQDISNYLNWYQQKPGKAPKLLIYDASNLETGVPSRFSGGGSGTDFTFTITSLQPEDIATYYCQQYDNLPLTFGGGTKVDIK
notes: also called antibody 45
In the case of B11, the “Neutralisation IC50 (FRNT)” value [5] is reported as 2 µg/mL.

B12: Fab of antibody 40 (Fab, V domains shown)
VH: QVQLVESGGGLVQPGGSLRLSCAVSGFTVSRNYMSWVRQAPGKGLEWVSLIYSGGSTFYADSVKGRFTISRDNSKNTLYLQMNSLRAEDTAVYYCARDLFHRSGYHDYWGQGTLVTVSS
VL: not shown
notes: also called 40 Fab; Fab 40
B12 was tested, and the Kd [1] was 1.23 nM, the “% Occupancy” value [2] was 97.4% and the Kd [3] was 0.97 nM. For the same binder, the “Neutralisation IC50” value [4] was 45.7 nM.

B13: antibody 384, full-length IgG (antibody, V domains shown)
VH: EVQLVESGGGLVKPGESLRLSCAASGFTFSDYYMTWIRQAPGKGLEWVSYIRSSGHTIYYADSVKGRFTISRDNAKNSLYLQMNSLRVEDTAVYYCARGGVLRFLEWPLNAFDIWGQGTMVTVSS
VL: DIQLTQSPSSLSASVGDRVTITCRASQGISNYLAWYQQKPGKVPKLLIYAASTLQSGVPSRFSGSGSGTDFTLTISSLQPEDVATYYCQKYNNALGTFGQGTKVEIK
With B13 the “IC50 (ug/ml), FRNT” value [6] was 0.005 µg/mL.

B14: mAb 318 (antibody, V domains shown)
VH: QVQLVQSGPEVKKPGTSVKVSCKASGFTLTSSAMQWVRQARGQRLEWIGWIVVGSGNTNYAQKFQERVTITRDMSTSTAYMELSSLRSEDTAVYYCAAGRGYNSDFDYWGQGTLVTVSS
VL: AIRMTQSPGTLSLSPGERATLSCRASQSVSSSYLAWYQQRPGQAPRLLIYGTSSRATGIPDRFSGSGSGTDFTLTISRLEPEDFAVYYCQQYGYSVYTFGQGTKVDIK
For B14, the “Neutralisation IC50 (FRNT)” value [5] was 0.015 µg/mL.

B15: Fab of antibody 318 (Fab, V domains shown)
VH: QVQLVQSGPEVKKPGTSVKVSCKASGFTLTSSAMQWVRQARGQRLEWIGWIVVGSGNTNYAQKFQERVTITRDMSTSTAYMELSSLRSEDTAVYYCAAGRGYNSDFDYWGQGTLVTVSS
VL: AIRMTQSPGTLSLSPGERATLSCRASQSVSSSYLAWYQQRPGQAPRLLIYGTSSRATGIPDRFSGSGSGTDFTLTISRLEPEDFAVYYCQQYGYSVYTFGQGTKVDIK
Work on B15 yielded a Kd [3] of 1.99 nM.

B16: antibody 150, full-length IgG (antibody, V domains shown)
VH: QVQLVESGGGLIQPGGSLRLSCAASGVTVSSNYMSWVRQAPGKGLEWVSIIYSGGTTYYADSVKGRFTISRDSSMNTLYLQMNSLRAEDTAVYYCARDLMVYGIDVWGQGTTVTVSS
VL: EIVMTQSPSSLSASVGDRVTITCRASQGISSYLAWYQQKPGKAPKLLIYAASTLQSGVPSRFSGSGSGTDFTLTISSLQPEDFATYYCQQLDSYPPGYTFGQGTKVDIK
B16 was tested, and the “B.1.1.7/Victoria Ratio of IC50” value [6] was 12 and the “IC50 (ug/ml), FRNT” value [6] was 0.139 µg/mL.

B17: mAb 159 (antibody, V domains shown)
VH: EVQLVESGGGVVQPGRSLRLSCAASGFTFSSYGMHWVRQAPGKGLEWVALISYDGGNRYYADSVKGRFTISRDNSKNTLYLQMNRLRAEDTAMYYCAKDRDDGWDWYYFMDVWGKGTTVTVSS
VL: DIQLTQSPGTLSLSPGERATLSCRASQSISGNYLAWYQHKPGQAPRLLIYGASTRATGIPDRFSGSGSGTDFTLTISRLEPEDFAVYYCQQYGSSYTFGQGTKVEIK
B17 was tested, and the “Neutralisation IC50 (FRNT)” value [5] was 0.005 µg/mL.

B18: Fab of antibody 158 (Fab, V domains shown)
VH: EVQLLESGGDLIQPGGSLRLSCAASGVTVSSNYMSWVRQAPGKGLEWVSIIYPGGSTFYADSVKGRFTISRDNSKNTLYLQMHSLRAEDTAVYYCARDLGSGDMDVWGKGTTVTVSS
VL: DIVMTQSPSFLSASVGDRVTITCRASQGISSYLAWYQQKPGKAPKLLIQAASTLQSGVPSRFSGSGSGTEFTLTISSLQPEDFATYYCQQLNSYRYTFGQGTKVEIK
notes: also called 158 Fab; Fab 158
In the case of B18, the Kd [1] is reported as 3.73 nM, the “% Occupancy” value [2] is reported as 52.7% and the Kd [3] is reported as 1.57 nM. The “Neutralisation IC50” value [4] was 4.12 nM.

B19: Fab of antibody 58 (Fab, V domains shown)
VH: QVQLVESGGGLVQPGRSLRLSCAASGFTFDDYAMHWVRQPPGKGLEWVSGVSWNSGTIGYADSVKGRFIISRDNAKNSLYLQMNSLKAEDTALYYCAREVGGTFGVLISREGGLDYWGQGTLVTVSS
VL: SYELTQPPSVSVAPGQTARITCGGNTIGSKSVHWYQQRPGQAPVLVVYDDSDRPSGIPERFSGSNSGNTATLTISRVEAGDEADYYCQVWDSSSDRVVFGGGTKLTVL
B19 gave a Kd [3] of 0.55 nM.

B20: Fab of chimeric antibody 253H165L (Fab, V domains shown)
VH: not shown
VL: DIVMTQSPGTLSLSPGERATLSCRASQSVRSSYLAWYQQKPGQAPRLLIYGASRRGTGIPDRFSGSGSGTDFTLTISRLEPEDFAVYYCQQYGSSPWTFGQGTKVEIK
notes: also called 253H165L Fab
For B20, the Kd [1] was 5.02 nM, the “% Occupancy” value [2] was 51.3% and the “Neutralisation IC50” value [4] was 5.22 nM.

B21: mAb 165 (antibody, V domains shown)
VH: QVQLVQSGPEVKKPGTSVKVSCKASGFTFTSSAVQWVRQARGQRLEWIGWIVVGSGNTNYAQKFQESVTITRDMSTSTAYMELSSLRSEDTAVYYCAAPHCIGGSCHDAFDIWGQGTMVTVSS
VL: DIVMTQSPGTLSLSPGERATLSCRASQSVRSSYLAWYQQKPGQAPRLLIYGASRRGTGIPDRFSGSGSGTDFTLTISRLEPEDFAVYYCQQYGSSPWTFGQGTKVEIK
For B21, the “Neutralisation IC50 (FRNT)” value [5] was 0.021 µg/mL.

B22: chimeric antibody 253H165L, full-length IgG (antibody, V domains shown)
VH: not shown
VL: DIVMTQSPGTLSLSPGERATLSCRASQSVRSSYLAWYQQKPGQAPRLLIYGASRRGTGIPDRFSGSGSGTDFTLTISRLEPEDFAVYYCQQYGSSPWTFGQGTKVEIK
notes: also called 253H165L IgG
For B22, the Kd [1] was 0.09 nM, the “% Occupancy” value [2] was 24.5% and the “Neutralisation IC50” value [4] was 0.03 nM.
